The source of these data is publication PMC11940775, “A Bifunctional Phosphoglucomutase/Phosphomannomutase from Thermococcus kodakarensis: Biophysical Analysis and Cryo-EM Structure” (Biomolecules, 2025).

This series deals with the molecule itself. The experiment in a line: SEC; HiLoad 16/60 Superdex 200 pg, 50 mM HEPES pH 7.0 + 200 mM NaCl, against standard protein markers; self-association.

B1: Phosphoglucomutase/phosphomannomutase from Thermococcus kodakarensis (PGMTk) (enzyme)
chain: MGKLFGTFGVRGIANEEITPEFALKIGMAFGTLLKREGRERPLVVVGRDTRVSGEMLKDALISGLLSTGCDVIDVGIAPTPAIQWATNHFNADGGAVITASHNPPEYNGIKLLEPNGMGLKKEREAIVEELFFSEDFHRAKWNEIGELRKEDIIKPYIEAIKNRVDVEAIKKRRPFVVVDTSNGAGSLTLPYLLRELGCKVVSVNAHPDGHFPARNPEPNEENLKGFMEIVKALGADFGVAQDGDADRAVFIDENGRFIQGDKTFALVADAVLRENGGGLLVTTIATSNLLDDIAKRNGAKVMRTKVGDLIVARALLENNGTIGGEENGGVIFPDFVLGRDGAMTTAKIVEIFAKSGKKFSELIDELPKYYQFKTKRHVEGDRKAIVAKVAELAEKKGYKIDTTDGTKIIFDDGWVLVRASGTEPIIRIFSEAKSEEKAREYLELGIKLLEEALKG
notes: Phosphoglucomutase/phosphomannomutase PGMTk, product of gene Tk1108 of Thermococcus kodakarensis, UniProt Q68BJ6; His6 and a TEV protease site were put upstream of the gene; also called Tk1108; TK1108; source: E. coli Rosetta 2(DE3)pLysS, purified (heat treatment at 85 °C, Ni-NTA, Superdex 200 gel filtration)
B1: the “stoichiometry N” value is 4.
